The term stoichiometry N denotes a count of units in the complex or per binding partner.

From PMC11272775, “Epigenetic memory is governed by an effector recruitment specificity toggle in Heterochromatin Protein 1” (Nature Communications, 2024) come the findings set out here.

Series [1] relates to Swi6-WT (Schizosaccharomyces pombe). The series can be described thus: EMSA. The settings on record: 20 mM Hepes pH 7.5, 4 mM Tris, 80 mM KCl, 0.1% Igepal CA-630, 0.2 mM EDTA, 2 mM DTT, 10% glycerol, 10 nM mononucleosome, 30 °C 45 min, 6% acrylamide 0.5x TBE …. (In general: In EMSA bound probe runs differently from free probe, usually more slowly.)
Series [2] concerns the molecule itself. The series can be described thus: mass photometry; full-length recombinant Swi6 at 2.5-20 nM in 20 mM HEPES pH 7.5, 100 mM KCl; apparent dimerization constants (Kdim) from the relative abundance of monomer and dimer; dimer to monomers.
The target of a further series is H3K9me3 mononucleosomes. The series can be described thus: native gel or EMSA; Swi6 varied, 10 nM mononucleosomes; 20 mM Hepes pH 7.5, 4 mM tris, 80 mM KCl, 0.1% Igepal CA-630, 0.2 mM EDTA, 2 mM DTT, 10% glycerol; 30 °C for 45 min; unbound nucleosome band quantified; apparent K1/2.
The target in a further series is T1, MBP-Epe1 (S. pombe, UniProt O94603 1-948).
T1 construct: Epe1, S. pombe, full-length; also called MBP-His-TEV-Epe1; recombinant MBP-Epe1 fusion protein; source: Hi5 cells infected with baculovirus, purified (amylose resin, Superdex 200); not shown: MBP, N-terminal, kept
T1 sequence (looked up): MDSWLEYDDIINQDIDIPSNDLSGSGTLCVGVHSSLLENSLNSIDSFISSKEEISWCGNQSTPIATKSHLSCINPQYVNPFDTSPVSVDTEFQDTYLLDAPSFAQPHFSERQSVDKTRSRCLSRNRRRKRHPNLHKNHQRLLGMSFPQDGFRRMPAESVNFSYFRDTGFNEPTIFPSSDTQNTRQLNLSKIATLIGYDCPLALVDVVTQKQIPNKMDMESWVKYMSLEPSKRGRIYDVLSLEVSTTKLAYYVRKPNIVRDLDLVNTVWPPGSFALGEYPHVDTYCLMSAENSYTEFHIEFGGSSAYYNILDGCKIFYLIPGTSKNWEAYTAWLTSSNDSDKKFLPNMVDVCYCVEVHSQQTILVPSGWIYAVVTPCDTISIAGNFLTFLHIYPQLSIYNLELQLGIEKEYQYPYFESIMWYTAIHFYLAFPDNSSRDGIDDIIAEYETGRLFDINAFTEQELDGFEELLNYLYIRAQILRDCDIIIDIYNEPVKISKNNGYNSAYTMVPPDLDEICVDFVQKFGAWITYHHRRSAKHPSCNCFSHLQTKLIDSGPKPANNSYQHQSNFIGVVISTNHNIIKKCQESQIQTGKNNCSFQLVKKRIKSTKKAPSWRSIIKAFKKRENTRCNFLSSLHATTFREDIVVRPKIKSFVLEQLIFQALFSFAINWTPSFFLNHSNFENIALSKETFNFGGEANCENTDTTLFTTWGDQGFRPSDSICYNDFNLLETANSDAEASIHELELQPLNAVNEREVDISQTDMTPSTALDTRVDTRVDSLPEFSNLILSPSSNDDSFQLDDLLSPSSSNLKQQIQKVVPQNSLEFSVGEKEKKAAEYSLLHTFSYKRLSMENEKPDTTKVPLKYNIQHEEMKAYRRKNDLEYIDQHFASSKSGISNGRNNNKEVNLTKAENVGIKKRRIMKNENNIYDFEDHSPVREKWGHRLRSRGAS
Briefly: pull-down; recombinant 3X FLAG-Swi6 immobilised on FLAG M2 beads, three concentrations of recombinant MBP-Epe1; 20 mM HEPES pH 7.5, 150 mM NaCl, 5 mM MgCl2, 10% glycerol, 0.25% Triton X-100, 1 mM DTT; 2 h at 4 °C; blots with anti-MBP and M2 Flag antibodies. The settings on record: both partners purified.

For H3K9me3 mononucleosome, in series [1] (H3K9me3 histone, histone H3K9me3 (DNA unmodified)), the K half came out at 50 nM.
Consider H3K9me0 mononucleosome, for which the binding signal (fold weaker than H3K9me3) in series [1] (H3K9me0 histone, unmodified H3 (H3K9me0)) came to 2.4.

B1: Swi6-WT (recombinant, full-length) (natural protein, S. pombe, UniProt P40381 1-328, looked up)
chain: MKKGGVRSYRRSSTSKRSVIDDDSEPELPSMTKEAIASHKADSGSSDNEVESDHESKSSSKKLKENAKEEEGGEEEEEDEYVVEKVLKHRMARKGGGYEYLLKWEGYDDPSDNTWSSEADCSGCKQLIEAYWNEHGGRPEPSKRKRTARPKKPEAKEPSPKSRKTDEDKHDKDSNEKIEDVNEKTIKFADKSQEEFNENGPPSGQPNGHIESDNESKSPSQKESNESEDIQIAETPSNVTPKKKPSPEVPKLPDNRELTVKQVENYDSWEDLVSSIDTIERKDDGTLEIYLTWKNGAISHHPSTITNKKCPQKMLQFYESHLTFRENE
notes: Swi6, HP1 homolog of S. pombe; MW 37,292.6 g/mol; source: E. coli BL21(DE3)-RIPL, purified (Ni-NTA, anion exchange, SEC); not shown: 6XHis, N-terminal, cleaved
With B1, in series [2], the Kd is 0.38 nM and the “stoichiometry N” value amounted to 2. For the same molecule, in the series with H3K9me3 mononucleosomes, the apparent K1/2 was 50 nM and the specificity for H3K9me3 over H3K9me0 mononucleosomes turned out to be 2.4 fold.

B2: Swi6-T278K (recombinant, full-length) (natural protein, S. pombe, UniProt P40381 1-328, looked up)
chain: MKKGGVRSYRRSSTSKRSVIDDDSEPELPSMTKEAIASHKADSGSSDNEVESDHESKSSSKKLKENAKEEEGGEEEEEDEYVVEKVLKHRMARKGGGYEYLLKWEGYDDPSDNTWSSEADCSGCKQLIEAYWNEHGGRPEPSKRKRTARPKKPEAKEPSPKSRKTDEDKHDKDSNEKIEDVNEKTIKFADKSQEEFNENGPPSGQPNGHIESDNESKSPSQKESNESEDIQIAETPSNVTPKKKPSPEVPKLPDNRELTVKQVENYDSWEDLVSSIDKIERKDDGTLEIYLTWKNGAISHHPSTITNKKCPQKMLQFYESHLTFRENE
notes: Swi6, HP1 homolog of S. pombe, with T278K; MW 37,319.7 g/mol; also called Swi6-K; source: E. coli BL21(DE3)-RIPL, purified (Ni-NTA, anion exchange, SEC); not shown: 6XHis, N-terminal, cleaved
On to B2, for which, in series [2], the Kd was 0.2 nM and the “stoichiometry N” value was 2.

B3: 3X FLAG-Swi6-WT (recombinant) (natural protein, S. pombe, UniProt P40381 1-328, looked up)
chain: MKKGGVRSYRRSSTSKRSVIDDDSEPELPSMTKEAIASHKADSGSSDNEVESDHESKSSSKKLKENAKEEEGGEEEEEDEYVVEKVLKHRMARKGGGYEYLLKWEGYDDPSDNTWSSEADCSGCKQLIEAYWNEHGGRPEPSKRKRTARPKKPEAKEPSPKSRKTDEDKHDKDSNEKIEDVNEKTIKFADKSQEEFNENGPPSGQPNGHIESDNESKSPSQKESNESEDIQIAETPSNVTPKKKPSPEVPKLPDNRELTVKQVENYDSWEDLVSSIDTIERKDDGTLEIYLTWKNGAISHHPSTITNKKCPQKMLQFYESHLTFRENE
notes: Swi6, HP1 homolog of S. pombe; source: E. coli BL21(DE3)-RIPL, purified (recombinant); not shown: 6XHis, N-terminal, cleaved
With B3, the binding result with MBP-Epe1 is listed as “binds”.

B4: Swi6-T278Y (recombinant, full-length) (natural protein, S. pombe, UniProt P40381 1-328, looked up)
chain: MKKGGVRSYRRSSTSKRSVIDDDSEPELPSMTKEAIASHKADSGSSDNEVESDHESKSSSKKLKENAKEEEGGEEEEEDEYVVEKVLKHRMARKGGGYEYLLKWEGYDDPSDNTWSSEADCSGCKQLIEAYWNEHGGRPEPSKRKRTARPKKPEAKEPSPKSRKTDEDKHDKDSNEKIEDVNEKTIKFADKSQEEFNENGPPSGQPNGHIESDNESKSPSQKESNESEDIQIAETPSNVTPKKKPSPEVPKLPDNRELTVKQVENYDSWEDLVSSIDYIERKDDGTLEIYLTWKNGAISHHPSTITNKKCPQKMLQFYESHLTFRENE
notes: Swi6, HP1 homolog of S. pombe, with T278Y; MW 37,354.7 g/mol; also called Swi6-Y; source: E. coli BL21(DE3)-RIPL, purified (Ni-NTA, anion exchange, SEC); not shown: 6XHis, N-terminal, cleaved
B4: in series [2], the Kd is 0.27 nM and the “stoichiometry N” value was determined as 2. For the same molecule, in the series with H3K9me3 mononucleosomes, the apparent K1/2 came to 39 nM and the specificity for H3K9me3 over H3K9me0 mononucleosomes is 2.3 fold.
